Measured values as given in patent US20220411514A1, “ANTI-GAL3 ANTIBODIES AND METHODS OF USE FOR INSULIN RESISTANCE” (TrueBinding, Inc., priority 2021, published 2022).
Numbering of substitutions follows the chain as printed.

B1: 849.1D2: anti-Gal3 antibody (antibody, V domains shown)
VH: QVQLKESGPVLVAPSQSLSITCTVSGFSLSSYGVHWVRQPPGKGLEWLGVIWAGGSTDYDSALMSRLSISKDNSKSQVFLKMDSLQTDDTAMYYCAKPPYDYDGAWFAYWGQGTLVTVSA
VL: DVVMTQTPKFLLVSAGDRVTITCKASQSVSSDVAWYQQKPGQSPKLLIYFASNRYTGVPDRFTGSGYGTDFTFTISTVQAEDLAVYFCQHNYISPFTFGGGTKLEIK
B2: 847.23F11: anti-Gal3 antibody (antibody, V domains shown)
VH: QVQLQQSGAELVRPGASVKLSCKASGYTFTSSWMNWVKQRPGQGLDWIGMIDPSDSETHYNQMFKDKATLTVDKSSNTAYMQLSRLTSEDSAVYYCVNSNYESGYWGQGTTLTVSS
VL: DILMTQSHKFMSTSVGDRVSITCKASQDVSSVVVWYQQKPGQSPKQLIYWASTRHTGVPDRFTGSGSGTDYTLTISSVQAEDLALYYCQQHYSTPYTFGGGTKLEIK
B3: 847.28D1: anti-Gal3 antibody (antibody, V domains shown)
VH: QVQLVETGPGLVAPSQSLSITCTVSGFSLTSYGVHWIRQSPGKGLEWLGTIWAGGSTDYNSPLMSRLSISKDNSKNQVFLKMNSLQIDDTAIYYCASPPSGYDYDVFASWGQGTLVTVSA
VL: DIRMTQSPASLSASVGETVTITCRASGNIHNYLAWYHQKQGKSPQLLVYNVKTLADGVPSRFSGSGSGTQFSLKINSLQPEDFGTYYCQHFWSIFPTFGGGTKLEIK
B4: 847.3B3: anti-Gal3 antibody (antibody, V domains shown)
VH: B3 VH with V5K, T7S, S40P, T50G, S70T, N76S, I87S, I92M, S109Y
VL: B3 VL with R3L, H37Q, N50S, V51A, N76D, I94L
B5: 847.13E2-mH0mL1: anti-Gal3 antibody (antibody, V domains shown)
VH: EVQLQQSGPELVKPGASVKVSCKASGYSFTDYNMYWVMQSHGKSLEWIGYIDPYNDATSYSQKFTGKATLTVDKSSSTAFMHLNSLTSEDSAVYYCARWGRYEYYAMDYWGQGTSVTVSS
VL: DIVMTQSPASLPVSLGQRATISCRASKSVTTSAYSYIHWYQQRPGQPPKLLIYLASNLESGVPARFSGSGSGTDFTLNIHPVEEEDAATYYCQHNRELPPTFGGGTKLEIN
B6: 847.13E2-mH0mL2: anti-Gal3 antibody (antibody, V domains shown)
VH: B5 VH
VL: DIVLTQSPATLSVTPGDSVSFSCRASQIINNNLHWYQQKSHESPRLLIRYTSQSISGIPSRFSGSGSGTDFTLSINNVETEDFGMYFCQQTNSWPLTFGAGTKLELK
B7: 2D10-hVH4-HVL2: anti-Gal3 antibody, VH SEQ ID NO: 807, VL SEQ ID NO: 822 (antibody, V domains shown)
VH: QVQLVQSGAEVKKPGASVKVSCKASGYTFTDYYINWVRQAPGQRLEWMGWIYPGSQDTKYNEKFQGRVTLTVDTSASTAYMELSSLRSEDTAVYFCANYFGSSGWFFDVWGQGTMVTVSS
VL: DIVMTQSPLSLPVTPGEPASISCRSSKSLLHSDGITYLYWYLQKPGQSPQLLIYRMSNLASGVPDRFSGSGSGTDFTLKISRVEAEDVGVYYCAQMIEFPLTFGQGTKLEIK
modifications: VH-81 Peptide Sequence; VL-79 Peptide Sequence
B8: 2D10-hVH4-HVL3: anti-Gal3 antibody, VH SEQ ID NO: 808, VL SEQ ID NO: 823 (antibody, V domains shown)
VH: B7 VH
VL: B7 VL with I2V, P15L, E17Q, L42Q, K44R, Q50R, L59R, A60D
modifications: VH-82 Peptide Sequence; VL-80 Peptide Sequence
B9: 2D10-hVH4-HVL4: anti-Gal3 antibody, VH SEQ ID NO: 809, VL SEQ ID NO: 824 (antibody, V domains shown)
VH: B7 VH
VL: B7 VL with P15L, E17Q, L42Q, K44R, A60D
modifications: VH-83 Peptide Sequence; VL-81 Peptide Sequence
B10: 2D10-hVH3-HVL1: anti-Gal3 antibody, VH SEQ ID NO: 810, VL SEQ ID NO: 825 (antibody, V domains shown)
VH: B7 VH with N61S, E62Q, L70I, F95Y
VL: B7 VL with L59R
modifications: VH-84 Peptide Sequence; VL-82 Peptide Sequence
B11: 2D10-hVH3-HVL2: anti-Gal3 antibody, VH SEQ ID NO: 811, VL SEQ ID NO: 826 (antibody, V domains shown)
VH: B7 VH with N61S, E62Q, L70I, F95Y
VL: B7 VL
modifications: VH-85 Peptide Sequence; VL-83 Peptide Sequence
B12: 2D10-hVH3-HVL3: anti-Gal3 antibody, VH SEQ ID NO: 812, VL SEQ ID NO: 827 (antibody, V domains shown)
VH: B7 VH with N61S, E62Q, L70I, F95Y
VL: B7 VL with I2V, P15L, E17Q, L42Q, K44R, Q50R, L59R, A60D
modifications: VH-86 Peptide Sequence; VL-84 Peptide Sequence
B13: 2D10-hVH3-HVL4: anti-Gal3 antibody, VH SEQ ID NO: 813, VL SEQ ID NO: 828 (antibody, V domains shown)
VH: B7 VH with N61S, E62Q, L70I, F95Y
VL: B7 VL with P15L, E17Q, L42Q, K44R, A60D
modifications: VH-87 Peptide Sequence; VL-85 Peptide Sequence

Target: T1, human Gal3 (Homo sapiens, UniProt P17931)
T1 construct: 6xHis (linker-spaced) (C); purchased AcroBio (Acro Biosystems) GA3-H5129
Assay: Epitope binning, sandwich format, SPR Carterra LSA (Example 8)
Assay type: binding
Settings: not given
Method: The epitope binning assay was done in a sandwich format on the high-throughput SPR-based Carterra LSA unit (CarterraBio, Salt Lake City, Utah). First, the purified antibodies were diluted to 10 μg/ml concentration in 10 mM NaOAc (pH 5.0) and then were covalently coupled via amine group to HC200M chip activated by EDC and S-NHS to immobilize antibodies to different positions of a 384-spot array. One hundred thirty-eight binning cycles were run on the array of immobilized antibodies. In each cycle, first, human Gal3 (AcroBio GA3-H5129) was injected over the entire array to bind to different antibodies (primary antibody), followed by one antibody (secondary antibody) selected among the panel of 150 anti-GAL3 antibodies tested. At the end of each cycle, the array was regenerated by 10 mM Glycine (pH 2.0) to remove bound antigen and secondary antibody from the array. The data analysis was done using the Epitope software by CarterraBio.

T1 sequence (P17931 whole entry): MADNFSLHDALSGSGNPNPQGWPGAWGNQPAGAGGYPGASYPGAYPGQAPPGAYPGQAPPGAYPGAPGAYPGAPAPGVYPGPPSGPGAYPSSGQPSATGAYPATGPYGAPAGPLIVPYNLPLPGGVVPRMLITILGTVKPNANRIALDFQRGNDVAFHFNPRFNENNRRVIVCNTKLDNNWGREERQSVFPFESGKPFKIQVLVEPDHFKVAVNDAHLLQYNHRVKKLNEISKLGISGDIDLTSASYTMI

**Q.** How did the “epitope bin (mutual competitive binding for Gal3)” value (from here on “epitope bin”) turn out when B1 was run?
**A.** Its value is 11.

**Q.** With B2 as the molecule, how does the “epitope bin” value read?
**A.** The value was “CRD”.

**Q.** With B3 as the molecule, how does the “epitope bin” value read?
**A.** The value was “CRD”.

**Q.** Which “epitope bin” value does the source give for B4 here?
**A.** The value was “CRD”.

**Q.** With B5 as the molecule, how does the “epitope bin” value read?
**A.** Its value is “CRD”.

**Q.** With B6 as the molecule, how does the “epitope bin” value read?
**A.** The value was “CRD”.

Tested on: GLUT4 translocation in L6 GLUT4myc myoblasts
Assay: Insulin-stimulated GLUT4 translocation with Gal3 and anti-Gal3 antibody
Assay type: cell-based, rat
Settings: 30 μg/mL Gal3 pre-incubated with 60 μg/mL antibody, 100 nM insulin
Method: Rat L6 GLUT4myc myoblasts (Kerafast #ESK202-FP) express a Myc-tagged GLUT4 that can be detected with an anti-Myc antibody. These cells were grown in a 48-well plate in MEM u growth media (Gibco, #12-571-063)+10% fetal bovine serum (FBS; Corning #35-016-CV) until 90-95% confluence was reached. Cells were then washed in PBS and serum starved for 2 hours in MEM u growth media without FBS. Thirty (30) μg/mL recombinant human Gal3 (TrueBinding QCB200347) was pre-incubated with 60 μg/mL anti-Gal3 antibodies for 30 minutes before being added to the serum-starved cells for 1 hour at 37° C. At the end of incubation, half of the cells were treated with 100 nM insulin (Sigma-Aldrich #I5523-50MG) for 20 minutes while the other half acted as basal controls. After 20 minutes, cells were washed quickly with ice cold PBS twice, then incubated with 4% paraformaldehyde (Boster Bio #AR1068) for 10 minutes on ice followed by 10 minutes at room temperature. The cells were washed three times with PBS, then blocked with 0.5 mL 5% goat serum (Vector Laboratories #101098-382) in PBS for 15 minutes. After the blocking agent was aspirated from the cells, 1 μg/ml anti-Myc polyclonal antibody (Sigma-Aldrich #C-3956) in 5% goat serum was added for 1 hour. […] Primary antibody was aspirated away, and then cells washed 5 times with PBS. Next, cells (including background controls) were incubated with 1:1000 goat anti rabbit antibody secondary antibody (Abcam #Ab97051) in 5% Goat serum for 30 minutes at room temperature. After washing, cells were incubated with 400 μL of TMB (Thermo Scientific #PI34029) for 5 minutes, then 200 μL of 1N HCL (Avantor Performance #JT5620-2) was added to stop the reaction. 100 μL of the sample was transferred to a 96 well plate with duplicates transferred for each condition. Samples were read at 450 nm on a SpectraMax plate reader. […] The fold changes were plotted on GraphPad Prism and presented as mean (SEM) of the technical replicates. Statistical significance was determined using unpaired T-tests comparing samples treated with Gal3 and insulin with all other conditions.

**Q.** Which “effect on Gal3 block of insulin-stimulated GLUT4 translocation” value (shortened to “effect on Gal3 block”) does the source give for B7 here?
**A.** Its value is “reduce the ability of Gal3 to block GLUT4 translocation”.

**Q.** For B8, which “effect on Gal3 block” value is on record?
**A.** Its value is “reduce the ability of Gal3 to block GLUT4 translocation”.

**Q.** Which “effect on Gal3 block” value does the source give for B9 here?
**A.** Its value is “reduce the ability of Gal3 to block GLUT4 translocation”.

**Q.** With B10 as the molecule, how does the “effect on Gal3 block” value read?
**A.** Its value is “reduce the ability of Gal3 to block GLUT4 translocation”.

**Q.** For B11, which “effect on Gal3 block” value is on record?
**A.** The value was “reduce the ability of Gal3 to block GLUT4 translocation”.

**Q.** How did the “effect on Gal3 block” value turn out when B12 was run?
**A.** The value was “reduce the ability of Gal3 to block GLUT4 translocation”.

**Q.** B13 was tested. Which “effect on Gal3 block” value did it give?
**A.** The value was “reduce the ability of Gal3 to block GLUT4 translocation”.

Target: T2, Human Gal3 peptides (Homo sapiens, UniProt P17931)
T2 construct: purchased LifeTein custom order
Assay: Gal3 peptide binding ELISA (Example 8)
Settings: antibody 5 μg/mL
Method: Gal3 peptide binding activity of additional exemplary anti-Gal3 antibodies was assessed with the same peptides as described in FIG. 18 (SEQ ID NOs: 3-26). Human Gal3 peptides (LifeTein, custom order) and human Gal3 proteins (R&D Systems, 8259-GA; TrueBinding, QCB200349) were diluted in PBS (Corning, 21-030-CM) to concentrations of at least 100 μg/mL (peptides) or 1 μg/mL (proteins), and added to the wells of several 96-well ELISA plates (Thermo Fisher, 44-2404-21). After incubating the plates at 4° C. overnight, the plates were washed three times with PBST (PBS with 0.05% Tween 20 [VWR, 0777]). The plates were then blocked for an hour with 2% BSA (EMD Millipore, 126609) in PBST at room temperature with gentle rocking. Thereafter, the 2% BSA in PBST was discarded and Gal3-binding antibodies (reformatted hIgG4 [S228P]) were diluted in 2% BSA in PBST to concentrations of 5 μg/mL and added to the wells. The plates were incubated for an hour at room temperature with gentle rocking and then washed three times with PBST. Afterwards, Peroxidase AffiniPure F(ab′)2 Fragment Goat Anti-Human IgG (H+L) polyclonal antibody (Jackson ImmunoResearch, 109-036-003), was diluted in 2% BSA in PBST (1:4000) and added to the wells. The plates were incubated for 1 hour at room temperature with gentle rocking and then washed three times with PBST. TMB substrate (Thermo Scientific, 34029) was then added to each well. The reaction was stopped with 1M HCl (JT Baker, 5620-02) and read using a plate reader (Molecular Devices) at absorbance of 450 nm.

**Q.** What does the source list for B1?
**A.** binding to Gal3 peptide 1 (SEQ ID NO: 3): bound; binding to Gal3 peptide 17 (SEQ ID NO: 19): bound

**Q.** With B2 as the molecule, how does the “binding to Gal3 peptide 13 (SEQ ID NO: 15)” value read?
**A.** Its value is “bound”.

**Q.** What about the “binding to Gal3 peptide 17 (SEQ ID NO: 19)” value (from here on “binding … (SEQ ID NO: 19)”) of the same molecule?
**A.** The value was “bound”.

**Q.** B3 was tested. Which “binding to Gal3 peptide 6 (SEQ ID NO: 8)” value did it give?
**A.** Its value is “bound”.

**Q.** Which “binding … (SEQ ID NO: 19)” value does the source give for B4 here?
**A.** The value was “bound”.

**Q.** What does the source list for B5?
**A.** binding to Gal3 peptide 13 (SEQ ID NO: 15): bound; binding to Gal3 peptide 17 (SEQ ID NO: 19): bound

**Q.** Which “binding to Gal3 peptide 13 (SEQ ID NO: 15)” value does the source give for B6 here?
**A.** Its value is “bound”.

**Q.** And the “binding … (SEQ ID NO: 19)” value?
**A.** The value was “bound”.
